Measurements: the supplement of paper PMC9233669
Fewer inactive variants are shown than the library holds.

Assays:
biotinyl-Phe-oxazolone = assay: self-aminoacylation, catalytic enhancement (BFO) (fold over background); higher = more active; k-Seq, kA / k0A0; sequences stand for … in GGGAAUGGAUCCACAUCUACGAAUUC…UUCACUGCAGACUUGACGAAGCUG
Procedure, shortened: (§1)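 Catalytic enhancement equals the median kA over the uncatalyzed rate, the latter read from the low-activity peak of a bimodal Gaussian fit. Values of kA came from fitting each sequence's fraction reacted to a pseudo-first-order model, with 1000 bootstraps. Reacted RNA was captured with streptavidin and quantified by triplicate qPCR and Illumina sequencing after 90 minutes at room temperature with 2–1250 μM biotinyl-aminoacyl-oxazolone and 0.43 μM mutagenized RNA pools bearing a 21-nt variable region.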

biotinyl-Ile-oxazolone = assay: self-aminoacylation, catalytic enhancement (BIO) (fold over background); higher = more active; k-Seq, kA / k0A0; sequences stand for … in GGGAAUGGAUCCACAUCUACGAAUUC…UUCACUGCAGACUUGACGAAGCUG
Procedure, shortened: as §1

biotinyl-Met-oxazolone = assay: self-aminoacylation, catalytic enhancement (BMO) (fold over background); higher = more active; k-Seq, kA / k0A0; sequences stand for … in GGGAAUGGAUCCACAUCUACGAAUUC…UUCACUGCAGACUUGACGAAGCUG
Procedure, shortened: as §1

biotinyl-Val-oxazolone = assay: self-aminoacylation, catalytic enhancement (BVO) (fold over background); higher = more active; k-Seq, kA / k0A0; sequences stand for … in GGGAAUGGAUCCACAUCUACGAAUUC…UUCACUGCAGACUUGACGAAGCUG
Procedure, shortened: as §1

biotinyl-Leu-oxazolone = assay: self-aminoacylation, catalytic enhancement (BLO) (fold over background); higher = more active; k-Seq, kA / k0A0; sequences stand for … in GGGAAUGGAUCCACAUCUACGAAUUC…UUCACUGCAGACUUGACGAAGCUG
Procedure, shortened: as §1

biotinyl-Trp-oxazolone = assay: self-aminoacylation, catalytic enhancement (BWO) (fold over background); higher = more active; k-Seq, kA / k0A0; sequences stand for … in GGGAAUGGAUCCACAUCUACGAAUUC…UUCACUGCAGACUUGACGAAGCUG
Procedure, shortened: as §1

Sequence | self-aminoacylation (biotinyl-Phe-oxazolone) | self-aminoacylation (biotinyl-Ile-oxazolone) | self-aminoacylation (biotinyl-Met-oxazolone) | self-aminoacylation (biotinyl-Val-oxazolone) | self-aminoacylation (biotinyl-Leu-oxazolone) | self-aminoacylation (biotinyl-Trp-oxazolone)
AUUCACCCAGGUCAUGGGGUG [Fam2.2 aminoacylation ribozyme variant] | 67.1 | 5.18 | 10.2 | 5.23 | 13.8 | 8.21
AUUCACCCAGGUGAUCGGGUG [Fam2.2 aminoacylation ribozyme variant] | 25.7 | 3.64 | 4.45 | 3.59 | 3.44 | 4.5
AUUCACCCAGUUCAUCGGGUG [Fam2.2 aminoacylation ribozyme variant] | 10.8 | 2.48 | 2.52 | 2.72 | 2.6 | 2.33
AUUCACCCGGGUCAUCGGGUG [Fam2.2 aminoacylation ribozyme variant] | 42.6 | 4.1 | 5.16 | 4.44 | 6.18 | 6.14
AUUCACCGAGGUCAACGGGUG [Fam2.2 aminoacylation ribozyme variant] | 36.9 | 3.52 | 5.75 | 3.27 | 8.52 | 5.14
AUUCACCGAGGUCAUCGGCUG [Fam2.2 aminoacylation ribozyme variant] | 12.4 | 2.29 | 2.26 | 2.26 | 2.38 | 1.93
AUUCACCGAGGUCAUCGGGCG [Fam2.2 aminoacylation ribozyme variant] | 24.4 | 3.19 | 3.34 | 3.86 | 3.66 | 2.96
AUUCACCGAGGUCAUUGGGUG [Fam2.2 aminoacylation ribozyme variant] | 42.6 | 3.83 | 6.99 | 3.88 | 8.02 | 5.88
AUUCACCGAGGUCCUCGGGUG [Fam2.2 aminoacylation ribozyme variant] | 84.6 | 6.76 | 11.3 | 6.63 | 14.6 | 9.2
AUUCACCGAGGUCUUCGGGUG [Fam2.2 aminoacylation ribozyme variant] | 40.7 | 3.97 | 4.94 | 4.69 | 7.58 | 6.52
AUUCACCUAAAUCAUCGGGUG [Fam2.2 aminoacylation ribozyme variant] | 34.6 | 3.11 | 5.3 | 2.56 | 6.91 | 5.55
AUUCACCUAAGACAUCGGGUG [Fam2.2 aminoacylation ribozyme variant] | 33.4 | 3.05 | 4.49 | 3.13 | 5.92 | 4.54
AUUCACCUAAGUAAUCGGGUG [Fam2.2 aminoacylation ribozyme variant] | 24.9 | 2.81 | 4.37 | 2.15 | 5.7 | 4.33
AUUCACCUAAGUCAUCAGGUG [Fam2.2 aminoacylation ribozyme variant] | 11 | 2.23 | 3.1 | 2.07 | 3.53 | 3.31
AUUCACCUAAGUCAUCGCGUG [Fam2.2 aminoacylation ribozyme variant] | 110 | 6.77 | 13.4 | 7.56 | 17.7 | 15.7
AUUCACCUAAGUCAUCGGGUC [Fam2.2 aminoacylation ribozyme variant] | 1.31 | 1.01 | 1.42 | 1.53 | 1.13 | 1.78
AUUCACCUAAGUGAUCGGGUG [Fam2.2 aminoacylation ribozyme variant] | 9.9 | 1.65 | 2.25 | 1.77 | 2.94 | 2
AUUCACCUAAGUUAUCGGGUG [Fam2.2 aminoacylation ribozyme variant] | 51 | 3.83 | 6.15 | 3.96 | 8.59 | 5.61
AUUCACCUACGUAAUCGGGUG [Fam2.2 aminoacylation ribozyme variant] | 45.9 | 3.09 | 6.45 | 3.4 | 9.03 | 5.66
AUUCACCUACGUCAUCGGGUA [Fam2.2 aminoacylation ribozyme variant] | 0.967 | 1.58 | 1.94 | 1.61 | 1.96 | 2.18
AUUCACCUACGUUAUCGGGUG [Fam2.2 aminoacylation ribozyme variant] | 63.3 | 3.98 | 7.55 | 4.17 | 9.22 | 6.51
AUUCACCUAGAUCAUCGAGUG [Fam2.2 aminoacylation ribozyme variant] | 1.68 | 1.14 | 1.33 | 1.32 | 1.64 | 0.729
AUUCACCUAGAUCAUCGGCUG [Fam2.2 aminoacylation ribozyme variant] | 0.62 | 1.69 | 1.56 | 1.89 | 1.81 | 1.63
AUUCACCUAGAUCAUCGGGCG [Fam2.2 aminoacylation ribozyme variant] | 8.81 | 1.96 | 3.12 | 1.93 | 2.33 | 1.28
AUUCACCUAGAUCAUCGGGUG [Fam2.2 aminoacylation ribozyme variant] | 14.9 | 2.1 | 2.8 | 2.22 | 3.47 | 2.95
AUUCACCUAGAUCAUCGGGUU [Fam2.2 aminoacylation ribozyme variant] | 0.554 | 1.01 | 0.967 | 1.11 | 1.17 | 1.26

Sequence | self-aminoacylation (biotinyl-Phe-oxazolone) | self-aminoacylation (biotinyl-Ile-oxazolone) | self-aminoacylation (biotinyl-Met-oxazolone) | self-aminoacylation (biotinyl-Val-oxazolone) | self-aminoacylation (biotinyl-Leu-oxazolone) | self-aminoacylation (biotinyl-Trp-oxazolone)
AUUCACCUAGAUCAUCGUGUG [Fam2.2 aminoacylation ribozyme variant] | 1.49 | 0.956 | 1.36 | 0.999 | 1.38 | 1.06
AUUCACCUAGAUCUUCGGGUG [Fam2.2 aminoacylation ribozyme variant] | 12.3 | 2.18 | 3.09 | 2.54 | 3.75 | 2.8
AUUCACCUAGAUGAUCGGGUG [Fam2.2 aminoacylation ribozyme variant] | 13.7 | 2.32 | 2.77 | 2.62 | 2.71 | 3.34
AUUCACCUAGAUUAUCGGGUG [Fam2.2 aminoacylation ribozyme variant] | 53.7 | 4.48 | 7.21 | 4.18 | 9 | 6.65
AUUCACCUAGCCCAUCGGGUG [Fam2.2 aminoacylation ribozyme variant] | 13.6 | 2 | 2.92 | 2.58 | 3.35 | 3.11
AUUCACCUAGCGCAUCGGGUG [Fam2.2 aminoacylation ribozyme variant] | 10 | 1.55 | 1.72 | 1.68 | 2.96 | 2.14
AUUCACCUAGCUCAGCGGGUG [Fam2.2 aminoacylation ribozyme variant] | 10.6 | 2.08 | 2.68 | 2.09 | 3.49 | 2.83
AUUCACCUAGCUCAUCGCGUG [Fam2.2 aminoacylation ribozyme variant] | 34.7 | 2.98 | 4.26 | 3.28 | 6.1 | 5.18
AUUCACCUAGCUCAUCGGCUG [Fam2.2 aminoacylation ribozyme variant] | 3.23 | 1.67 | 1.92 | 1.96 | 2.05 | 1.25
AUUCACCUAGCUCAUCUGGUG [Fam2.2 aminoacylation ribozyme variant] | 5.43 | 1.17 | 1.3 | 1.05 | 1.52 | 0.967
AUUCACCUAGGACACCGGGUG [Fam2.2 aminoacylation ribozyme variant] | 15.6 | 3.57 | 3.51 | 3.63 | 3.94 | 3.19
AUUCACCUAGGACAUCGGCUG [Fam2.2 aminoacylation ribozyme variant] | 10.9 | 1.7 | 2.02 | 1.79 | 2.32 | 2.64
AUUCACCUAGGACAUCGGGUG [Fam2.2 aminoacylation ribozyme variant] | 18.8 | 2.55 | 3.19 | 2.6 | 3.89 | 3.1
AUUCACCUAGGACAUCGGGUU [Fam2.2 aminoacylation ribozyme variant] | 3.67 | 1.47 | 1.39 | 1.77 | 1.38 | 1.25
AUUCACCUAGGAGAUCGGGUG [Fam2.2 aminoacylation ribozyme variant] | 34.3 | 3.82 | 4.82 | 3.54 | 7.83 | 5.46
AUUCACCUAGGCCAUCGGGGG [Fam2.2 aminoacylation ribozyme variant] | 10.8 | 2.5 | 2.64 | 2.82 | 4.55 | 2.28
AUUCACCUAGGCCAUCUGGUG [Fam2.2 aminoacylation ribozyme variant] | 13.2 | 1.54 | 2.74 | 2.05 | 3.29 | 2.35
AUUCACCUAGGCCAUGGGGUG [Fam2.2 aminoacylation ribozyme variant] | 42.5 | 4.58 | 8.03 | 3.87 | 10.2 | 6.1
AUUCACCUAGGCGAUCGGGUG [Fam2.2 aminoacylation ribozyme variant] | 20.4 | 2.88 | 3.5 | 3.52 | 4.89 | 3.78
AUUCACCUAGGGAAUCGGGUG [Fam2.2 aminoacylation ribozyme variant] | 36.4 | 3.54 | 5.05 | 3.23 | 7.44 | 4.86
AUUCACCUAGGGCAUAGGGUG [Fam2.2 aminoacylation ribozyme variant] | 38.6 | 3.22 | 4.74 | 2.76 | 6.33 | 4.16
AUUCACCUAGGGCAUCGAGUG [Fam2.2 aminoacylation ribozyme variant] | 1.76 | 1.26 | 1.45 | 1.2 | 1.65 | 0.91
AUUCACCUAGGGCAUCGGGAG [Fam2.2 aminoacylation ribozyme variant] | 0.472 | 1.07 | 0.855 | 1.04 | 1.1 | 1.08
AUUCACCUAGGGCAUGGGGUG [Fam2.2 aminoacylation ribozyme variant] | 81.4 | 5.82 | 10.1 | 5.39 | 12 | 9.2
AUUCACCUAGGGCCUCGGGUG [Fam2.2 aminoacylation ribozyme variant] | 20.3 | 2.37 | 3.51 | 2.66 | 3.89 | 3.99
